# According to article PMC10477243, “Molecular basis of RNA-binding and autoregulation by the cancer-associated splicing factor RBM39” (Nature Communications, 2023):
# T1: SF3b155 ULM peptide KSRWDETP
# T1 construct: ULM (UHM ligand motif) of SF3b155 (SF3B1)
# T1 peptide: KSRWDETP
# T2: RBM39 RRM2 (UniProt Q14498 250-328)
# T2 sequence: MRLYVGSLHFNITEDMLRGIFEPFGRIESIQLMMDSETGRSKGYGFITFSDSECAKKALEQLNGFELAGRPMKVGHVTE
# T3: RBM39 RRM2 F259A (UniProt Q14498 250-328, F259A)
# T3 sequence: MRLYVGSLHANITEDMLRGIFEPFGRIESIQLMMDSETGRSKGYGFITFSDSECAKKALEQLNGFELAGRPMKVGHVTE
# Legend:
# [1] = target: T1, SF3b155 ULM peptide KSRWDETP; test: ITC; PEAQ-ITC (Malvern); Buffer G (sodium phosphate 10 mM pH 7.2, NaCl 50 mM, TCEP 0.5 mM); protein 300 μM in the syringe, ligand (peptide) 30 μM in the cell; details: both partners purified
# [2] = target: T2, RBM39 RRM2; test: NMR titration; ITC: RRM2/RRM12 in 10 mM Na phosphate pH 6.8, 50 mM NaCl, 2 mM DTT; RRM1 in the same at pH 5.5; 40 C (RRM12 with ssSL3 at 35 C); NMR 200 uM protein in the same; details: protein: recombinant; tags: His tag removed by thrombin
# [3] = target: T2, RBM39 RRM2; test: ITC; n=1.18; ITC: RRM2/RRM12 in 10 mM Na phosphate pH 6.8, 50 mM NaCl, 2 mM DTT; RRM1 in the same at pH 5.5; 40 C (RRM12 with ssSL3 at 35 C); NMR 200 uM protein in the same; details: protein: recombinant; tags: His tag removed by thrombin
# [4] = target: T3, RBM39 RRM2 F259A; test: ITC; n=1.27; ITC: RRM2/RRM12 in 10 mM Na phosphate pH 6.8, 50 mM NaCl, 2 mM DTT; RRM1 in the same at pH 5.5; 40 C (RRM12 with ssSL3 at 35 C); NMR 200 uM protein in the same; details: protein: recombinant
binder,measurement,setting,value
"RBM39 RRM3 (domain or fragment, Construct limits not printed (cited paper); 418-530 is the customary RRM3/UHM construct, covering the annotated RRM3 445-508 and the C-terminus) VQPLATQCFQLSNMFNPQTEEEVGWDTEIKDDVIEECNKHGGVIHIYVDKNSAQGNVYVKCPSIAAAIAAVNALHGRWFAGKMITAAYVPLPTYHNLFPDSMTATQLLVPSRR",Kd,[1],19 ± 5 µM
same,dH,[1],-20 kcal/mol
same,stoichiometry N,[1],0.65
"RBM39 mRRM3 (domain or fragment, Construct limits not printed (cited paper); same conventional limits as wild-type RRM3) VQPLATQCFQLSNMFNPQTEEEVGWDTEIKDDVIEECNKHGGVIHIYVDKNSAQGNVYVKCPSIAAAIAAVNALHGAWAAGKMITAAYVPLPTYHNLFPDSMTATQLLVPSRR",Kd,[1],> 100 µM
CUCUUUG (ssRNA) [BS1],binding result,[2],binds
CCUCCCA (ssRNA) [mutBS1],binding result,[2],no binding
AGCUUUG (ssRNA),Kd,[3],9 ± 2 µM
same,Kd,[4],41 ± 10 µM
